Measurements published in patent US20250000988A1, “EPHA2 BICYCLIC PEPTIDE LIGAND AND CONJUGATE THEREOF” (priority 2021, published 2025).
Where two headings read alike, the source gives them in different places. Numbered stars: 1 amine (or outer) side, 2 acyl side, 3 side chain; on linkers, the order of the positions; unused ones are H or OH. Bridge positions count the residues as written; N and C are the ends. Square brackets hold non-standard residues; d marks the D form. Peptide text beside a SMILES is read from it. I, II: the chains in the order shown. * marks the point of attachment. X3 = O=C(CCCC(=O)NCCC(=O)[*:1])NCCOCCOCCN(CC(=O)[*:2])CC(=O)[*:3]; TATA = O=C(CC[*:1])N1CN(C(=O)CC[*:2])CN(C(=O)CC[*:3])C1; Dolaproine = CO[C@@H]([C@@H]1CCCN1)[C@@H](C)C(=O)O; Dil = CC[C@H](C)[C@H](NC)[C@@H](CC(=O)O)OC; X2 = O=C(CCCC(=O)[*:2])NCCC(=O)[*:1]; PABC = O=C(OCc1ccc(N[*:1])cc1)[*:2]; X1 = C[C@@H](N*)[C@@H](O)c1ccccc1; Hyp = O=C(O)[C@@H]1C[C@@H](O)CN1; hArg = N=C(N)NCCCC[C@H](N)C(=O)O; Cit = NC(=O)NCCC[C@H](N)C(=O)O; NMeV = CN[C@H](C(=O)O)C(C)C; hCys = N[C@@H](CCS)C(=O)O; Sar = CNCC(=O)O

What was measured:
PC3 cells = assay: PC3 cell proliferation inhibition assay; assay type: cell-based, human
Description: PC3 cell culture conditions: RPMI-1640+10% FBS+1% penicillin-streptomycin solution. The cells were cultured in a 37° C., 5% CO2 incubator. On the first day, the PC3 cells in the exponential growth phase were collected and plated in a 96-well cell culture plate at a density of 500 cells/well (90 μL/well). The cells were cultured overnight in a 37° C., 5% CO2 incubator. The next day, 10 μL of the compound at different concentrations was added to each well so that the final concentration of DMSO in each well was 0.1%. The mixture was cultured in a 37° C., 5% CO2 incubator for 3 days. After the completion of culture, 50 μL of detection solution (Cell Viability Assay, Promega, G7573) was added to each well. The mixture was mixed uniformly for 2 minutes and incubated at room temperature for 10 minutes. The chemiluminescence reading was detected by a microplate reader. The results were processed according to formula (1), the proliferation inhibition rate of the compound at different concentrations was calculated, and the IC50 value of the compound with an inhibition rate of 50% was calculated using origin9.2 software, wherein RLUcompound was the readout of the treated group, and RLUcontrol was the average value of the solvent control group.

[1] = tested on: PC3 cells subcutaneous transplanted tumor; assay: Mouse PC3 cells subcutaneous in vivo transplanted tumor model; parameters: species or system CB-17 SCID mice; details: 0.5 mg/kg intravenously, once a week, 35 days
Description: Human prostate cancer PC3 cells were placed in an RPMI-1640 medium (supplemented with 10% fetal bovine serum and 1% penicillin-streptomycin solution) and cultured at 37° C. Conventional digestion treatment with trypsin was carried out twice a week for passage. When the cell saturation was 80%-90%, and the number reached the requirement, the cells were collected, counted, and inoculated. Male CB-17 SCID mice (from Beijing Vital River Laboratory Animal Technology Co., Ltd.) were subcutaneously inoculated with 0.1 mL (2×10^6) of PC3 cells (plus matrigel, with the volume ratio of 1:1) on the right back. When the average tumor volume reached about 80-120 mm^3, grouping and administration were performed (marked as Day 0). For the solvent group, 50 mM of acetic acid and 10% sucrose solution (pH=5) were administered; and for the administration group, 0.5 mg/kg of compound 2, compound 4 or compound 13 was intravenously administered. The administration frequency was once a week and the administration cycle was 35 days (Day 0-Day 34). After grouping, the tumor diameter was measured twice a week with a vernier caliper. The formula for calculating the tumor volume was: V=0.5×a×b^2, where a and b represented the long and short diameters of the tumor, respectively. The tumor inhibitory effect of the compound was evaluated by TGI (%)= [1−(average tumor volume at the end of administration in the treatment group-average tumor volume at the beginning of administration in the treatment group)/(average tumor volume at the end of treatment in the solvent control group-average tumor volume at the beginning of treatment in the solvent control group)]×100%. The tumor growth curve and the animal body weight change curve were as shown in FIG. 1 and FIG. 2, respectively.

MOLP8 cells = assay: MOLP8 cell proliferation inhibition assay; assay type: cell-based, human; details: MOLP8 cells (EphA2 negative cell), incubated 5 days
Description: Human multiple myeloma MOLP8 cells purchased from DSMZ were placed in complete RPMI-1640 medium (supplemented with 20% fetal bovine serum) and cultured at 37° C. and 5% CO2. The cells in the exponential growth phase were collected, and the cell suspension was adjusted to 8000 cells/135 μL with the culture medium. 135 μl of the cell suspension was added to each well of a 96-well cell culture plate and incubated overnight. The next day, compounds at different concentrations were added, and the plate was placed in the incubator and incubated for 5 days. After the completion of culture, according to operation instructions for a CellTiter-Glo kit (Promega, Cat #G7573), 75 μL of CTG solution, which was already pre-melted and equilibrated to room temperature, was added to each well, and the mixture was uniformly mixed for 2 minutes using a microplate shaker. The plate was placed at room temperature for 10 minutes, and then […] signal values were measured using an Envision 2104 plate reader (PerkinElmer). The cell proliferation inhibition rate was calculated according to the formula [(1−(RLUcompound−RLUblank)/(RLUcontrol−RLUblank))×100%]. The IC50 value was obtained by four-parameter nonlinear fitting using GraphPad Prism software.

[2] = Pharmacokinetic test in rats; parameters: species or system SD rats; details: in vivo, iv, rat plasma, i.v. 1 mg/kg, analyte PDC
Description: 3.1 Experimental animals: male SD rats, about 220 g, 6-8 weeks old, 3 rats/compound. Purchased from Chengdu Ddossy Experimental Animals Co., Ltd.
3.2 Experimental design: on the day of the test, 3 SD rats were randomly grouped according to their body weights. The animals were fasted with water available for 12 to 14 h one day before the administration, and were fed 4 h after the administration.
Before and after the administration, 0.15 m1 of blood was taken from the orbit of the animals under isoflurane anesthesia and placed in an EDTAK2 centrifuge tube. The blood was centrifuged at 5000 rpm and 4° C. for 10 min to collect plasma. The blood collection time points for the intravenous administration group and intragastric administration group were: 0, 5 min, 15 min, 30 min, 1 h, 2 h, 4 h, 6 h, 8 h and 24 h. Before analysis and detection, all samples were stored at −80° C., and a quantitative analysis of samples was performed using LC-MS/MS.

[3] = Pharmacokinetic test in monkeys; details: cynomolgus monkey, in vivo, iv, monkey plasma; for AUC(0-t) / Cmax / half-life: 1 mg/kg
Description: 4.1 Experimental animals: male cynomolgus monkeys, 3-5 kg, 3-6 years old, 3 monkeys/compound. Purchased from Suzhou Xishan Biotechnology Inc.
4.2 Experimental method: on the day of the test, 3 monkeys were randomly grouped according to their body weights. The animals were fasted with water available for 14 to 18 h one day before the administration, and were fed 4 h after the administration.
Solvent for intravenous administration: 5% DMA+95% (20% SBE-CD).
Before and after the administration, 1.0 mL of blood samples were drawn from the limb veins and placed in an EDTAK2 centrifuge tube. Centrifugation was carried out at 5000 rpm at 4° C. for 10 min, and the plasma was collected. The blood collection time points for the intravenous administration group were: 0, 2 min, 5 min, 15 min, 30 min, 1 h, 2 h, 4 h, 6 h, 8 h, and 24 h. Before analysis and detection, all samples were stored at −80° C., and a quantitative analysis of samples was performed using LC-MS/MS.

[4] = i.v. 1 mg/kg of compound 4, analyte MMAE

Compound: CC[C@H](C)[C@@H]([C@@H](CC(=O)N1CCC[C@H]1[C@H](OC)[C@@H](C)C(=O)N[C@H](C)[C@@H](O)c1ccccc1)OC)N(C)C(=O)[C@@H](NC(=O)[C@H](C(C)C)N(C)C(=O)OCc1ccc(NC(=O)[C@H](CCCNC(N)=O)NC(=O)[C@@H](NC(=O)CCCC(=O)NCCC(=O)N(C)CC(=O)N(C)CC(=O)N(C)CC(=O)N(C)CC(=O)N(C)CC(=O)N(C)CC(=O)N(C)CC(=O)N(C)CC(=O)N(C)CC(=O)N(C)CC(=O)N[C@@H](C)C(=O)N[C@@H](CCCCNC(=N)N)C(=O)N[C@@H](CC(=O)O)C(=O)N[C@H]2CSCCC(=O)N3CN4CN(C3)C(=O)CCSC[C@H](NC(=O)[C@H](CC(C)C)NC(=O)[C@@H]3CCCN3C(=O)[C@H](CC(N)=O)NC(=O)[C@H](C(C)C)NC(=O)[C@H](CC(C)C)NC(=O)[C@@H]3C[C@@H](O)CN3C2=O)C(=O)N[C@@H](CC(C)C)C(=O)N[C@@H](Cc2c[nH]cn2)C(=O)N2CCC[C@H]2C(=O)N[C@H](CC(=O)O)C(=O)N[C@@H](Cc2c[nH]c3ccccc23)C(=O)N[C@@H](CCCCNC(=N)N)C(=O)N[C@H](C(N)=O)CCSCCC4=O)C(C)C)cc1)C(C)C [Compound 2] (I: [Sar][Sar][Sar][Sar][Sar][Sar][Sar][Sar][Sar][Sar]A[hArg]DC[Hyp]LVNPLCLHP[dD]W[hArg][hCys]-NH2 / II: V[Cit][PABC][NMeV]V[Dil][Dolaproine]-X1; linker I:14-I:21-I:28 via TATA; linker I:N-II:N via X2)
- IC50 (PC3 cells; read-out: IC50 value): 3.1 nM
- tolerability [1]: well tolerated

Compound: CC[C@H](C)[C@@H]([C@@H](CC(=O)N1CCC[C@H]1[C@H](OC)[C@@H](C)C(=O)N[C@H](C)[C@@H](O)c1ccccc1)OC)N(C)C(=O)[C@@H](NC(=O)[C@H](C(C)C)N(C)C(=O)OCc1ccc(NC(=O)[C@H](CCCNC(N)=O)NC(=O)[C@@H](NC(=O)CCCC(=O)NCCC(=O)N(C)CC(=O)N(C)CC(=O)N(C)CC(=O)N(C)CC(=O)N(C)CC(=O)N(C)CC(=O)N(C)CC(=O)N(C)CC(=O)N(C)CC(=O)N(C)CC(=O)N[C@@H](C)C(=O)N[C@@H](CCCCNC(=N)N)C(=O)N[C@@H](CC(=O)O)C(=O)N[C@H]2CCSCCC(=O)N3CN4CN(C3)C(=O)CCSC[C@H](NC(=O)[C@H](CC(C)C)NC(=O)[C@@H]3CCCN3C(=O)[C@H](CC(N)=O)NC(=O)[C@H](C(C)C)NC(=O)[C@H](CC(C)C)NC(=O)[C@@H]3C[C@@H](O)CN3C2=O)C(=O)N[C@@H](CC(C)C)C(=O)N[C@@H](Cc2c[nH]cn2)C(=O)N2CCC[C@H]2C(=O)N[C@H](CC(=O)O)C(=O)N[C@@H](Cc2c[nH]c3ccccc23)C(=O)N[C@@H](CCCCNC(=N)N)C(=O)N[C@H](C(N)=O)CSCCC4=O)C(C)C)cc1)C(C)C [Compound 4] (I: [Sar][Sar][Sar][Sar][Sar][Sar][Sar][Sar][Sar][Sar]A[hArg]D[hCys][Hyp]LVNPLCLHP[dD]W[hArg]C-NH2 / II: V[Cit][PABC][NMeV]V[Dil][Dolaproine]-X1; linker I:14-I:21-I:28 via TATA; linker I:N-II:N via X2)
- IC50 (PC3 cells; read-out: IC50 value): 2.9 nM
- IC50 (MOLP8 cells): 144 nM
- AUC(0-t) [2]: 1470 ng·h/mL
- Cmax [2]: 6530 ng/mL
- clearance [2]: 11 mL/min/kg
- half-life [2]: 16.3 min
- Vd ([2]; read-out: Vdss): 0.233 L/kg
- AUC(0-t) [3, 4]: 20.8 ng·h/mL
- Cmax [3, 4]: 3.71 ng/mL
- half-life [3, 4]: 1460 min
- AUC(0-t) ([3]; i.v. 1 mg/kg, analyte PDC): 3030 ng·h/mL
- Cmax ([3]; i.v. 1 mg/kg, analyte PDC): 7630 ng/mL
- half-life ([3]; i.v. 1 mg/kg, analyte PDC): 38.6 min
- clearance ([3]; i.v. 1 mg/kg, analyte PDC): 5.57 mL/min/kg
- Vd ([3]; i.v. 1 mg/kg, analyte PDC, read-out: Vdss): 0.179 L/kg
- tolerability [1]: well tolerated

Compound: CC[C@H](C)[C@@H]([C@@H](CC(=O)N1CCC[C@H]1[C@H](OC)[C@@H](C)C(=O)N[C@H](C)[C@@H](O)c1ccccc1)OC)N(C)C(=O)[C@@H](NC(=O)[C@H](C(C)C)N(C)C(=O)OCc1ccc(NC(=O)[C@H](CCCNC(N)=O)NC(=O)[C@@H](NC(=O)CCCC(=O)NCCC(=O)N(C)CC(=O)N(C)CC(=O)N(C)CC(=O)N(C)CC(=O)N(C)CC(=O)N(C)CC(=O)N(C)CC(=O)N(C)CC(=O)N(C)CC(=O)N(C)CC(=O)N[C@@H](C)C(=O)N[C@@H](CCCCNC(=N)N)C(=O)N[C@@H](CC(=O)O)C(=O)N[C@H]2CCSCCC(=O)N3CN4CN(C3)C(=O)CCSC[C@H](NC(=O)[C@H](CC(C)C)NC(=O)[C@@H]3CCCN3C(=O)[C@H](CC(N)=O)NC(=O)[C@H](C(C)C)NC(=O)[C@H](CC(C)C)NC(=O)[C@@H]3C[C@@H](O)CN3C2=O)C(=O)N[C@@H](CC(C)C)C(=O)N[C@@H](Cc2c[nH]cn2)C(=O)N2CCC[C@H]2C(=O)N[C@H](CC(=O)O)C(=O)N[C@@H](Cc2c[nH]c3ccccc23)C(=O)N[C@@H](CCCCNC(=N)N)C(=O)N[C@H](C(N)=O)CCSCCC4=O)C(C)C)cc1)C(C)C [Compound 13] (I: [Sar][Sar][Sar][Sar][Sar][Sar][Sar][Sar][Sar][Sar]A[hArg]D[hCys][Hyp]LVNPLCLHP[dD]W[hArg][hCys]-NH2 / II: V[Cit][PABC][NMeV]V[Dil][Dolaproine]-X1; linker I:14-I:21-I:28 via TATA; linker I:N-II:N via X2)
- tolerability [1]: well tolerated

Compound: I: [Sar][Sar][Sar][Sar][Sar][Sar][Sar][Sar][Sar][Sar]A[hArg]D[hCys][Hyp]LVNPLCLHP[dD]W[hArg]C-NH2 / II: V[Cit][PABC][NMeV]V[Dil][Dolaproine]-X1 / III: V[Cit][PABC][NMeV]V[Dil][Dolaproine]-X1 (linker I:14-I:21-I:28 via TATA; linker I:N-II:N-III:N via X3) [Compound 17]
- Max inh. % 10 μM (PC3 cells; 10 μM): 69.4%
- IC50 (PC3 cells; cultured 3 days with compound, read-out: IC50): ≤ 10 nM
- IC50 (PC3 cells; read-out: IC50 value): 1 nM
